T1: Drosophila Tribbles activation loop mutant Trbl^SLE/G, yeast two-hybrid bait (Drosophila, UniProt Q9V3Z1 1-484, SLE/G (replacement of E286 with glycine))
T1 construct: also called pDEST32-Trbl^SLE/G; source: yeast two-hybrid fusion (MaV203 yeast)
T1 sequence (looked up): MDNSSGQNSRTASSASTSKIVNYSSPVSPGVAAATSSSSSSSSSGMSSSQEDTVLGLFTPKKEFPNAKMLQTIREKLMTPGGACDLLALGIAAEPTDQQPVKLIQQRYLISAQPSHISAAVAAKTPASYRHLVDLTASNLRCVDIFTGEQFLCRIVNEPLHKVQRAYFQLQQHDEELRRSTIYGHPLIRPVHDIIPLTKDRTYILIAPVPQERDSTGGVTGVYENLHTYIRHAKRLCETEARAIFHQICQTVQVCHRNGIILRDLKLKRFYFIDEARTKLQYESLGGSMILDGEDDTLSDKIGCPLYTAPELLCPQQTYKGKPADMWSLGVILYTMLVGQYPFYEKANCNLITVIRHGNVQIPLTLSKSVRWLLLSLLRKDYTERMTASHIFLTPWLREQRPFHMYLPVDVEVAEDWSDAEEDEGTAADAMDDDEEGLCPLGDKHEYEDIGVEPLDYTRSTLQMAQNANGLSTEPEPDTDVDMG

B1: Drosophila Tribbles (Trbl), wild type, yeast two-hybrid fusion (natural protein, UniProt Q9V3Z1 1-484, looked up)
chain: MDNSSGQNSRTASSASTSKIVNYSSPVSPGVAAATSSSSSSSSSGMSSSQEDTVLGLFTPKKEFPNAKMLQTIREKLMTPGGACDLLALGIAAEPTDQQPVKLIQQRYLISAQPSHISAAVAAKTPASYRHLVDLTASNLRCVDIFTGEQFLCRIVNEPLHKVQRAYFQLQQHDEELRRSTIYGHPLIRPVHDIIPLTKDRTYILIAPVPQERDSTGGVTGVYENLHTYIRHAKRLCETEARAIFHQICQTVQVCHRNGIILRDLKLKRFYFIDEARTKLQYESLEGSMILDGEDDTLSDKIGCPLYTAPELLCPQQTYKGKPADMWSLGVILYTMLVGQYPFYEKANCNLITVIRHGNVQIPLTLSKSVRWLLLSLLRKDYTERMTASHIFLTPWLREQRPFHMYLPVDVEVAEDWSDAEEDEGTAADAMDDDEEGLCPLGDKHEYEDIGVEPLDYTRSTLQMAQNANGLSTEPEPDTDVDMG
notes: Tribbles (Trbl), Drosophila pseudokinase; WT Trbl ORF; One molecule for both two-hybrid copies: each copy carries only one of the two tags; also called WT Trbl; pDEST32-Trbl; source: yeast two-hybrid fusion (MaV203 yeast)

Experiments:
[1] = biological target: B1; assay: two-hybrid; MaV203 yeast; bait in pDEST32, prey in pDEST22; colony growth of co-transformants on media with increasing concentrations of 3-AT (His3 reporter); details: partners not purified
[2] = biological target: T1, Drosophila Tribbles activation loop …; assay: as above; details: partners not purified

Binder | highest 3AT concentration with growth [1] | highest 3AT concentration with growth [2]
Drosophila Akt, yeast two-hybrid prey (pDEST22-dAkt) (natural protein, UniProt Q8INB9 1-611, looked up, Akt kinase, Drosophila (dAkt); Akt open reading frame amplified from an Akt cDNA (Origene); source: yeast two-hybrid fusion (MaV203 yeast)) MNYLPFVLQRRSTVVASAPAPGSASRIPESPTTTGSNIINIIYSQSTHPNSSPTSGSAEKFSWQQSWPSRTSAAPTHDSGTMSINTTFDLSSPSVTSGHALTEQTQVVKEGWLMKRGEHIKNWRQRYFVLHSDGRLMGYRSKPADSASTPSDFLLNNFTVRGCQIMTVDRPKPFTFIIRGLQWTTVIERTFAVESELERQQWTEAIRNVSSRLIDVGEVAMTPSEQTDMTDVDMATIAEDELSEQFSVQGTTCNSSGVKKVTLENFEFLKVLGKGTFGKVILCREKATAKLYAIKILKKEVIIQKDEVAHTLTESRVLKSTNHPFLISLKYSFQTNDRLCFVMQYVNGGELFWHLSHERIFTEDRTRFYGAEIISALGYLHSQGIIYRDLKLENLLLDKDGHIKVADFGLCKEDITYGRTTKTFCGTPEYLAPEVLDDNDYGQAVDWWGTGVVMYEMICGRLPFYNRDHDVLFTLILVEEVKFPRNITDEAKNLLAGLLAKDPKKRLGGGKDDVKEIQAHPFFASINWTDLVLKKIPPPFKPQVTSDTDTRYFDKEFTGESVELTPPDPTGPLGSIAEEPLFPQFSYQGDMASTLGTSSHISTSTSLASMQ | 50 mM 3AT | 100 mM 3AT
B1 | – | 100 mM 3AT

Source: publication PMC12070071, “The Drosophila pseudokinase Tribbles translocates to the fat body membrane in response to fasting to modulate insulin sensitivity” (Development (Cambridge, England), 2025)
